{"source": "patent US20110123534A1", "about": "(ERASMUS UNIVERSITY MEDICAL CENTER ROTTERDAM, published 2011)", "binders": {"B1": {"name": "FYVE, RhoGEF and PH domain-containing 5 (FGD5), human, overexpressed in HUVECs by adenovirus (Ad-FGD5) (other)", "chain": "MFRGPKPPIAPKPRLTAPNEWRASVYLNDSLNKCSNGRLPCVDRGLDEGPRSIPKCSESETDEDYIVVPRVPLREDEPKDEGSVGNKALVSPESSAEEEEEREEGGEACGLEGTGAGEDSVAPAAPGAGALSREGEEGTDLALEDEGEGCADEPGTLEQVSRSEEEEKLVQPHRECSLEDSGPWAGEGVFQSDLLLPHIHGEDQEPPDTPGEAEEDDEEGCASTDPAGADEGSGPDRPTEDMGQDAEDTSEEPPEKEELAGVQEAETATDCPEVLEEGCEEATGVTGGEQVDLSEPPDHEKKTNQEVAAATLEDHAQDESAEESCQIVPFENDCMEDFVTSLTGSPYEFFPTESTSFCSESCSPLSESAKGLESEQAPKLGLRAEENPMVGALCGQCGSLQGGAAEGPAAPDVVVVLEEEALDDALANPYVMGVGLPGQAAPGEGGQAASDALGGYGSKEELNCEAEGGLVPADRKNTSTRVRPHSGKVAGYVPETVPEETGPEAGSSAPGIGGAAEEVGKTLLSLEGKPLEASRALPAKPRAFTLYPRSFSVEGREIPVSVYQEPEGSGLDDHRIKRKEDNLSLSCVIGSSGSFSQRNHLPSSGTSTPSSMVDIPPPFDLACITKKPITKSSPSLLIESDSPDKYKKKKSSFKRFLALTFKKKTENKLHVDVNVSSSRSSSESSYHGPSRILEVDRRSLSNSPQLKSRTGKLRASESPSSLIFYRDGKRKGVPFSRTVSRVESFEDRSRPPFLPLPLTKPRSISFPSADTSDYENIPAMNSDYENIQIPPRRPARAGAFTKLFEDQSRALSTANENDGYVDMSSFNAFESKQQSADQDAESAYTEPYKVCPISSAAPKEDLTSDEEQRSSEEEDSASRDPSVTHKVEGQSRALVIAQELLSSEKAYVEMLQHLNLDFHGAVMRALDDMDHEGRDTLAREELRQGLSELPAIHDLHQGILEELEERLSNWESQQKVADVFLAREQGFDHHATHILQFDRYLGLLSENCLHSPRLAAAVREFEQSVQGGSQTAKHRLLRVVQRLFQYQVLLTDYLNNLCPDSAEYDNTQGALSLISKVTDRANDSMEQGENLQKLVHIEHSVRGQGDLLQPGREFLKEGTLMKVTGKNRRPRHLFLMNDVLLYTYPQKDGKYRLKNTLAVANMKVSRPVMEKVPYALKIETSESCLMLSASSCAERDEWYGCLSRALPEDYKAQALAAFHHSVEIRERLGVSLGERPPTLVPVTHVMMCMNCGCDFSLTLRRHHCHACGKIVCRNCSRNKYPLKYLKDRMAKVCDGCFGELKKRGRAVPGLMRERPVSMSFPLSSPRFSGSAFSSVFQSINPSTFKKQKKVPSALTEVAASGEGSAISGYLSRCKRGKRHWKKLWFVIKGKVLYTYMASEDKVALESMPLLGFTIAPEKEEGSSEVGPIFHLYHKKTLFYSFKAEDTNSAQRWIEAMEDASVL", "notes": "Guanine-nucleotide exchange factor; Made with the pAd/CMV/V5 gateway system; also called Ad-FGD5 transgene product"}}, "molecular_target": "Rac1 (endogenous in HUVEC lysate) (human, UniProt P63000 1-189)", "test": "co-immunoprecipitation with anti-FGD5 antibody from lysates of FGD5 overexpressing HUVECs, western blot", "description": "GTP-RhoA, Rac1, and cdc42 activation levels were measured using the G-lisa detection system (Tebu-Bio, The Netherlands). For FGD5-protein complex co-immunoprecipitation, magnetic beads (Dynabeads, Invitrogen, The Netherlands) were coated and cross-linked with 2.5 μg anti-FGD5 antibody (Bioscience, The Netherlands) before immunoprecipitation overnight at 4° C. with protein cell lysates of transfected HUVECs (50 μg total protein of a volume of 100 μl incubation buffer). Beads were washed and the protein samples were eluted with eluation buffer (Invitrogen, The Netherlands) before analysis by western blot.", "data": [{"binder": "B1", "values": [{"measurement": "binding result", "value": "no binding"}]}]}
